Where a chain is given by its changes, count along the chain named.
B1: M3-LH-A1-1-1H1 (antibody, name in Kabat numbering, V domains shown)
VH: EVQLVESGGGLVQPGGSLRLSCAASGFTFSSYTMSWVRQAPGKGLEWVAYISNGGGSTYYPDTVKGRFTISRDNAKNSLYLQMNSLRAEDTAVYYCARNYGGTASFDYWGQGTLVTVSS
VL: DIQMTQSPSSLSASVGDRVTITCLASQTIGTWLAWYQQKPGKAPKLLIYVATSLADGVPSRFSGSGSGTDFTLTISSLQPEDFATYYCQQNFIAPWTFGQGTKVEIK
notes: hz1E11 library clone, periplasmic extract
B2: M3-LH-A1-2-2F4 (antibody, name in Kabat numbering, V domains shown)
VH: B1 VH with Y100L
VL: B1 VL with N91L, F92V, I93R, A94I
notes: as for B1
B3: M3-LH-A3-3-2F1 (antibody, V domains shown)
VH: B1 VH with N99H, Y100L
VL: B1 VL with F92A, I93Y, A94N
notes: as for B1
B4: M3-LH-A3-3-2A5 (antibody, name in Kabat numbering, V domains shown)
VH: B1 VH with N99H, Y100W
VL: B1 VL with N91M, I93S, A94T
notes: as for B1

biological target: T1, HER2-ECD-His protein (human, UniProt P04626 23-652); assay: SPR (Biacore 3000), HER2-ECD-His amine-coupled to CM5, periplasmic extract as analyte
T1 construct: extracellular domain; not shown: His tag
Experimental: In order to select clones with improved Koff among the selected clones, the clones were analyzed via Biacore 3000 (GE Healthcare). The HER2-ECD-His protein was immobilized to a CM5 sensor chip via an amine coupling method using ECD/NHS. […] The Koff value for each antibody was analyzed via BIAevaluation software.

In order of rising “Degree of reduction (Fold) of koff against hz1E11” value:
1. B1  0.7 fold
2. B2  3.2 fold
3. B4  3.6 fold
4. B3  4.4 fold
